Reference: patent publication US20260207717A1, “METHODS FOR TREATING INFANTILE-ONSET POMPE DISEASE IN PEDIATRIC PATIENTS” (Amicus Therapeutics, Inc., priority 2022, published 2026)

Experiments:
clinical = conditions: human, in vivo
Procedure: At 10Y7M of age, the blood of the patient was collected to gather pharmacokinetic (PK) data for their treatment that included weekly administration of 20 mg/kg ATB200 and 130 mg AT2221.
Blood sampling of the patient was conducted to gather pharmacokinetic (PK) data for their treatment that included administration of 25 mg/kg ATB200 and 195 mg AT2221 biweekly.
At 12Y5M of age, the patient has been receiving ATB200 (20 mg/kg) and AT2221 (195 mg) biweekly for 1 year. […] At this time, the PK levels of both ATB200 and AT2221 were taken from the patient.

[1] = Thermostability assay using SYPRO Orange; format: physicochemical
Procedure: The stability of ATB200 in acidic or neutral pH buffers was evaluated in a thermostability assay using SYPRO Orange, as the fluorescence of the dye increases when proteins denature. […] As summarized in Table 10, the addition of miglustat increased the melting temperature (Tm) of ATB200 by nearly 10° C.

[2] = tested on: pediatric patient with infantile Pompe disease; test: Example 16: pediatric IOPD patient switched from Myozyme to ATB200/AT2221; format: in vivo, human
Text: A patient with severe infantile Pompe disease presented. The patient underwent a comprehensive physical examination, measurement of GAA enzyme activity, genetic testing of the GAA gene and muscle biopsy to establish the diagnosis.
The patient received the high-dose enzyme replacement therapy with Myozyme after diagnosis. The patient responded very poorly to therapy. Due to rapidly progressing Pompe disease and inadequate response to therapy, the patient's survival was at risk. For the patient, the opportunity arose to receive the new ATB200/AT2221 ERT via a compassionate use/Expanded Access Program (EAP).
The index patient has regular measurement of the urinary Glc4-levels since the change of the ERT to ATB200. The Glc4-levels were determined by an established method from the Duke University. The analysis of Glc4 is standardized as a butyl-4-aminobenzoate derivative using [^13C6] Glc4 as the internal standard (IS). The measurement is performed as ultra-performance liquid chromatography-tandem mass spectrometry (UPLC-MS/MS). The Glc4-values are then normalized to creatinine.
The patient presented with IOPD at 6 months and was started on the standard dose of Myozyme (20 mg/kg/bi-weekly). Due to the inadequate response to therapy, the dose was doubled just one month after the start of therapy in form of a weekly administration of Myozyme. […] But the cardiological situation deteriorated progressively.
Therefore, just three months after initiation of therapy, the dose was again doubled to 40 mg/kg/weekly, so the patient received a total of four times the standard dose. With the intensification of ERT and cardiac therapy, the patient's condition initially stabilized. Nevertheless, over the next few months, the patient's general condition steadily deteriorated, and the patient decompensated, especially respiratory.
The patient was switched from Myozyme to ATB200/AT2221 after eight months of insufficient Myozyme therapy response. The patient was […] at the time of the therapy switch. The new therapy (via EAP) was initiated with the oral administration of 30 mg premedication AT2221 (Miglustat) one hour prior to enzyme administration. ATB200 was administered at a bi-weekly interval at a dosage of 20 mg/kg. In the further course of treatment, the dosage of premedication and ERT was repeatedly adjusted and optimized (see Table 22). Some actual dosages in Table 22 (e.g., 37 mg/kg and 34.5 mg/kg at 32 and 38 months, respectively) varied from the target dose (e.g., 30 mg/kg) to avoid waste of extra material left in vials.
The Gross Motor Function Measure 66 (GMFM 66) is used to quantify a patients' motor skills. The GMFM 66 is a worldwide standardized test developed and validated for children with cerebral palsy to measure the development of gross motor function over time. During testing 66 items are examined and a score from 0 to 100 points is possible.

## ATB200: recombinant human acid α-glucosidase with a high content of N-glycans bearing mono-M6P and bis-M6P, produced from a GA-ATB200 cell line
clinical
  AUC relative to adult percentiles: within the adult 10th-90th percentile
  Cmax relative to adult percentiles: within the adult 10th-90th percentile
[1]; pH 5.2
  Tm: 67.3 °C
[1]; pH 7.4
  Tm: 56.2 °C
  increase of melting temperature (Tm) by addition of miglustat: ~10 °C
[1]; pH 7.4 + 10 μM miglustat
  Tm: 61.6 °C
[1]; pH 7.4 + 30 μM miglustat
  Tm: 62.9 °C
[1]; pH 7.4 + 100 μM miglustat
  Tm: 66.0 °C
[2]; 16.5 months of ATB200 therapy
  GMFM 66 score: 17.0 points
[2]; 24 months of ATB200 therapy
  GMFM 66 score: 24.0 points
[2]; 28 months of ATB200 therapy
  GMFM 66 score: 29.3 points
[2]; biweekly 20 mg/kg
  urinary Glc4 levels: remained relatively constant
[2]; dose increase to 25 mg/kg/bi-weekly and switch to weekly 30 mg/kg at 19 months of age
  urinary Glc4 levels: increase
[2]; since 32 months of age (FIG. 71)
  urinary Glc4 levels: decrease of the values to the initial level
